The Human Domainome abundance scans (Beltran et al. 2025)
± gives the uncertainty stated by the source.

B1: V(D)J recombination-activating protein 2, residues 415 to 491; numbered along this chain, P55895 (parent)
chain: YWITCCPTCDVDINTWVPFYSTELNKPAMIYCSHGDGHWVHAQCMDLAERTLIHLSAGSNKYYCNEHVEIARALHTP

Variants of: B1
Test: abundance fitness (aPCA) (normalised: wild type 0, dead -1); higher = more abundant; growth selection in yeast, the domain comes from the species named
Conditions: Homo sapiens

E69V and E69W are within error of each other in abundance fitness: -0.14 ± 0.2 for the first, 0.071 ± 0.23 for the second.

E69C and E69T are within error of each other in abundance fitness: -0.355 ± 0.31 for the first, 0.007 ± 0.13 for the second.

E69M and F19E are within error of each other in abundance fitness: 0.18 ± 0.27 for the first, -0.179 ± 0.16 for the second.

F19D and F19K are within error of each other in abundance fitness: 0.099 ± 0.32 for the first, -0.116 ± 0.27 for the second.

F19G and L55D are within error of each other in abundance fitness: -0.142 ± 0.19 for the first, -0.152 ± 0.12 for the second.

L55V and L55K are within error of each other in abundance fitness: -0.082 ± 0.071 for the first, -0.019 ± 0.087 for the second.

A73R and A73Q are within error of each other in abundance fitness: 0.001 ± 0.057 for the first, 0.009 ± 0.14 for the second.

A28L and A28Y are within error of each other in abundance fitness: -0.094 ± 0.095 for the first, 0.009 ± 0.32 for the second.

G37P and K26R are within error of each other in abundance fitness: 0.076 ± 0.23 for the first, -0.006 ± 0.12 for the second.

K26L and K26Y are within error of each other in abundance fitness: -0.063 ± 0.14 for the first, -0.421 ± 0.43 for the second.

Going from H67G to H67P, the abundance fitness falls from -0.116 ± 0.044 to -0.369 ± 0.069.

T76H and T76R are within error of each other in abundance fitness: -0.149 ± 0.2 for the first, -0.091 ± 0.073 for the second.

T76N and T76Q are within error of each other in abundance fitness: -0.13 ± 0.13 for the first, -0.009 ± 0.097 for the second.

Y63A and Y63H are within error of each other in abundance fitness: -0.048 ± 0.061 for the first, -0.012 ± 0.14 for the second.

Y63C and Y63I are within error of each other in abundance fitness: 0.188 ± 0.11 for the first, 0.036 ± 0.12 for the second.

First: Y63M
Second: L47W
The abundance fitness of the first is higher: -0.171 ± 0.096 for the first, -0.611 ± 0.067 for the second.

L47H and L47F are within error of each other in abundance fitness: -0.243 ± 0.094 for the first, -0.133 ± 0.1 for the second.

L47N and L47D are within error of each other in abundance fitness: -0.364 ± 0.11 for the first, -0.571 ± 0.13 for the second.

L47C and N60F are within error of each other in abundance fitness: -0.081 ± 0.08 for the first, -0.273 ± 0.16 for the second.

N60G and N60T are within error of each other in abundance fitness: -0.017 ± 0.066 for the first, -0.022 ± 0.063 for the second.

N60M and N60D are within error of each other in abundance fitness: -0.081 ± 0.1 for the first, 0.01 ± 0.13 for the second.

N60E and N60A are within error of each other in abundance fitness: 0.046 ± 0.083 for the first, 0.002 ± 0.069 for the second.

N60C and T4K are within error of each other in abundance fitness: -0.209 ± 0.12 for the first, -0.048 ± 0.069 for the second.

T4E and T4S are within error of each other in abundance fitness: -0.057 ± 0.063 for the first, -0.037 ± 0.054 for the second.

T4P and T4C are within error of each other in abundance fitness: -0.234 ± 0.068 for the first, -0.119 ± 0.1 for the second.

I13E and T8V are within error of each other in abundance fitness: 0.172 ± 0.29 for the first, -0.196 ± 0.23 for the second.

T8G and T8R are within error of each other in abundance fitness: -0.277 ± 0.14 for the first, -0.204 ± 0.2 for the second.

E66S and Y31F are within error of each other in abundance fitness: -0.039 ± 0.074 for the first, -0.061 ± 0.073 for the second.

Y31V and Y31W are within error of each other in abundance fitness: -0.241 ± 0.063 for the first, -0.193 ± 0.062 for the second.

N25H and N25M are within error of each other in abundance fitness: 0.113 ± 0.31 for the first, -0.254 ± 0.24 for the second.

N25G and H75V are within error of each other in abundance fitness: 0.01 ± 0.11 for the first, -0.075 ± 0.08 for the second.

H75L and H75I are within error of each other in abundance fitness: -0.013 ± 0.049 for the first, -0.003 ± 0.14 for the second.

H75R and H75P are within error of each other in abundance fitness: -0.001 ± 0.058 for the first, -0.111 ± 0.063 for the second.

T51K and T51E are within error of each other in abundance fitness: 0.014 ± 0.12 for the first, -0.016 ± 0.093 for the second.

T51Y and T51A are within error of each other in abundance fitness: -0.068 ± 0.26 for the first, -0.025 ± 0.045 for the second.

T51D and P77C are within error of each other in abundance fitness: -0.042 ± 0.17 for the first, -0.243 ± 0.34 for the second.

P77S and P77G are within error of each other in abundance fitness: -0.354 ± 0.29 for the first, -0.157 ± 0.35 for the second.

P77A and S21D are within error of each other in abundance fitness: -0.123 ± 0.21 for the first, -0.17 ± 0.26 for the second.

S21Q and S21T are within error of each other in abundance fitness: -0.325 ± 0.37 for the first, -0.321 ± 0.12 for the second.

S21F and D12G are within error of each other in abundance fitness: -0.154 ± 0.14 for the first, -0.04 ± 0.14 for the second.

First: L52W
Second: L52R
The abundance fitness of the first is higher: -0.006 ± 0.092 for the first, -0.358 ± 0.073 for the second.

L52T and L52D are within error of each other in abundance fitness: -0.161 ± 0.086 for the first, -0.31 ± 0.18 for the second.

Going from W2R to N14D, the abundance fitness rises from -0.378 ± 0.054 to 0.385 ± 0.33.

S59H and S59R are within error of each other in abundance fitness: -0.043 ± 0.21 for the first, -0.115 ± 0.059 for the second.

S59E and S59F are within error of each other in abundance fitness: 0.002 ± 0.12 for the first, -0.088 ± 0.097 for the second.

Going from S59A to S59L, the abundance fitness falls from 0.078 ± 0.073 to -0.087 ± 0.085.

Going from G35W to G35E, the abundance fitness rises from -0.291 ± 0.14 to 0.068 ± 0.19.

First: G35V
Second: C44K
The abundance fitness of the first is higher: -0.175 ± 0.36 for the first, -1.23 ± 0.38 for the second.

C44S and C44F are within error of each other in abundance fitness: -0.998 ± 0.12 for the first, -0.952 ± 0.31 for the second.

C44E and C44H are within error of each other in abundance fitness: -1.08 ± 0.23 for the first, -1.09 ± 0.3 for the second.

I53R and I53V are within error of each other in abundance fitness: -0.011 ± 0.071 for the first, -0.048 ± 0.096 for the second.

I53M and I53F are within error of each other in abundance fitness: 0.041 ± 0.1 for the first, -0.013 ± 0.19 for the second.

I53A and I53T are within error of each other in abundance fitness: 0.154 ± 0.11 for the first, 0.004 ± 0.11 for the second.

I53D and I53P are within error of each other in abundance fitness: -0.184 ± 0.25 for the first, -0.163 ± 0.2 for the second.

V68N and V68Y are within error of each other in abundance fitness: -0.219 ± 0.4 for the first, -0.335 ± 0.19 for the second.

V68R and V68K are within error of each other in abundance fitness: -0.163 ± 0.18 for the first, -0.115 ± 0.14 for the second.

S33G and S33N are within error of each other in abundance fitness: -0.065 ± 0.046 for the first, -0.06 ± 0.094 for the second.

S33M and S56T are within error of each other in abundance fitness: -0.106 ± 0.057 for the first, 0.004 ± 0.099 for the second.

S56H and S56F are within error of each other in abundance fitness: -0.038 ± 0.14 for the first, -0.052 ± 0.1 for the second.

S56C and C6V are within error of each other in abundance fitness: -0.099 ± 0.11 for the first, -0.096 ± 0.26 for the second.

D46L and D46C are within error of each other in abundance fitness: 0.031 ± 0.045 for the first, 0.036 ± 0.083 for the second.

D46R and D46T are within error of each other in abundance fitness: 0.041 ± 0.031 for the first, 0.088 ± 0.061 for the second.

Going from D46W to D46V, the abundance fitness rises from -0.193 ± 0.07 to 0.046 ± 0.056.

A48H and A48F are within error of each other in abundance fitness: -0.226 ± 0.16 for the first, -0.161 ± 0.084 for the second.

A48M and A48T are within error of each other in abundance fitness: -0.022 ± 0.075 for the first, 0.026 ± 0.09 for the second.

A71D and A71L are within error of each other in abundance fitness: -0.038 ± 0.088 for the first, 0.027 ± 0.037 for the second.

A71S and A71C are within error of each other in abundance fitness: -0.04 ± 0.06 for the first, -0.033 ± 0.061 for the second.

Y1W and Y1F are within error of each other in abundance fitness: -0.19 ± 0.037 for the first, -0.07 ± 0.11 for the second.

First: Y62T
Second: Y62N
The abundance fitness of the first is higher: -0.152 ± 0.13 for the first, -0.469 ± 0.17 for the second.

Y62C and Y62V are within error of each other in abundance fitness: -0.442 ± 0.2 for the first, -0.342 ± 0.09 for the second.

V17I and V17L are within error of each other in abundance fitness: -0.153 ± 0.2 for the first, -0.056 ± 0.11 for the second.

V17W and V17S are within error of each other in abundance fitness: -0.117 ± 0.15 for the first, -0.01 ± 0.2 for the second.

A42K and A42I are within error of each other in abundance fitness: -0.411 ± 0.11 for the first, -0.563 ± 0.38 for the second.

A42S and A42Y are within error of each other in abundance fitness: -0.177 ± 0.077 for the first, -0.626 ± 0.4 for the second.

A57Y and A57E are within error of each other in abundance fitness: -0.108 ± 0.19 for the first, -0.03 ± 0.075 for the second.

Going from A57M to W16E, the abundance fitness falls from -0.156 ± 0.12 to -0.894 ± 0.36.

W16G and W16F are within error of each other in abundance fitness: -0.565 ± 0.15 for the first, -0.725 ± 0.42 for the second.

W16I and W16L are within error of each other in abundance fitness: -0.12 ± 0.26 for the first, -0.346 ± 0.2 for the second.

W16Q and C32Y are within error of each other in abundance fitness: -0.916 ± 0.43 for the first, -0.888 ± 0.34 for the second.

First: C32S
Second: C32G
The abundance fitness of the first is higher: -0.683 ± 0.13 for the first, -1.17 ± 0.17 for the second.

H34V and H34E are within error of each other in abundance fitness: -0.132 ± 0.05 for the first, -0.085 ± 0.082 for the second.

H34N and N65A are within error of each other in abundance fitness: -0.089 ± 0.11 for the first, 0.001 ± 0.063 for the second.

Compared with M45P, M45L is higher in abundance fitness: -1.26 ± 0.38 for the first, -0.291 ± 0.066 for the second.

M45H gave an abundance fitness of 0.058 ± 0.13.
